Results taken from article PMC2082060.

Molecular target: GST-endophilin I (recombinant) (UniProt O35179)
Assay: sequential GST pull-down, 32P autoradiography
Details: reference: total dynamin I of the lysate; sites S774,S778

dynamin I (from UniProt P21575) 32P-labelled phospho-dynamin I of same lysate
other: phospho/total bound dynamin I, % of AmphI-SH3 control: 91%
